Test results: the RNAGym collection of RNA variant scans (doi:10.1073/pnas.2313332121)
This sample holds only a part of the variants without activity.

B1: TPR 5TU (parent)
chain: GGAUCUUCUCGAUCUAACAAAAAAGACAAAUCUGCCACAAAGCUUGAGAGCAUCUUCGGAUGCAGAGGCGGCAGCCUUCGGUGGCGCGAUAGCGCCAACGUUCUCAACUAUGACACGCAAAACGCGUGCUCCGUUGAAUGGAGUUUAUCAUG

Variants of: B1
Assay: polymerase ribozyme fitness, log enrichment relative to wild type (log ratio); higher = more active; in vitro selection for triplet polymerase activity
Summary of the method: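 The heterodimeric triplet polymerase ribozyme's subunits were each mutagenized into PCR-built libraries and transcribed. Every library was selected once, in triplicate, by annealing with a biotinylated primer, the partner subunit and triplets, incubating frozen at −7 °C, gel-excising extended constructs, capturing on streptavidin beads and running RT-PCR. Input and output libraries were Illumina-sequenced, with genotypes kept only at ≥10 input reads and ≥1 read per output. Fitness, from inverse-variance-weighted replicate averages, is the base-2 logarithm of genotype enrichment over wild-type enrichment.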

Row | Variant | polymerase ribozyme fitness (log ratio)
1 | G86A U111C | -3.31
2 | C85U U104A U144A | -0.68
3 | C85G U144A C149U | -3.7
4 | C85U A119G | -1.31
5 | C85U A119C | -0.984
6 | G88C U144G | -3.7
7 | G88U C108A G128C C132U A137U | ≤ -4.2
8 | A91C A115G | -4.07
9 | C85U C118G | -0.62
10 | C93A C99A | ≤ -4.2
11 | G92A C96A | -3.11
12 | A91U G140C | ≤ -4.2
13 | C93A G140U | -3.85
14 | A91U U111G U151G | ≤ -4.2
15 | A91C U104A | ≤ -4.2
16 | G88A U109C A142C | -4.19
17 | G92U C149U | -1.29
18 | C87A C99U | ≤ -4.2
19 | A89C C131A | -3.23
20 | U90G G92C | ≤ -4.2
21 | C87A A97G | ≤ -4.2
22 | G86A G94A A110G | ≤ -4.2
23 | A91G C125A | -3.21
24 | A91G G141C | -2.86

Row | Variant | polymerase ribozyme fitness (log ratio)
25 | A91G G141U | -1.92
26 | C93U C105G | -3.36
27 | A91G A98G U130G C131A A150U | ≤ -4.2
28 | A89C G92U C96A A106G A107U U139A | ≤ -4.2
29 | G88A U104G | ≤ -4.2
30 | C93U A121U U127C | -2.87
31 | G88U A97G A98U G133U A150U | ≤ -4.2
32 | G92C A119G | 0.0407
33 | A91U G94U C96G A115G G141C | ≤ -4.2
34 | C85U C125A | -1.45
35 | C87U U148G | -3.83
36 | G88A C93G C108U A120U A137U | ≤ -4.2
37 | C87U A110U A120C U135A G136A | ≤ -4.2
38 | G86A G141C | -1.01
39 | C87U A98U | -1.16
40 | G88C C118G G140A | ≤ -4.2
41 | C87A G88U | ≤ -4.2
42 | C85U U144C | 0.118
43 | C87G G126A | -4.11
44 | G86C C99G A106G G124U G136A U148C | ≤ -4.2
45 | C85G U145A | -1.65
46 | C85G U145C | -2.42
47 | C87U U104A | -0.828
48 | C85G U102A G133U A137U G141C | -3.8

Row | Variant | polymerase ribozyme fitness (log ratio)
49 | C85U C118U G141U | 0.748
50 | G92U C95U A147G U148A | -3.45
51 | A89G A121G C131G | -3.53
52 | A89C C93U U135A | -3.55
53 | C85U C108G G143A A150G | -3.95
54 | C93A C103G A107U A119G G140A | ≤ -4.2
55 | G88A C96U | -3.43
56 | C85U C99G U111C A142G | ≤ -4.2
57 | G92A C114U | -3.92
58 | A91U G141U | ≤ -4.2
59 | A91U G141C | -4.05
60 | C87U G140A | -3.7
61 | C93G G140A | ≤ -4.2
62 | C85U G141A | -0.0572
63 | C87U A150G | -1.2
64 | G86A A89U U144C | -1.64
65 | G88A A97U U102C | ≤ -4.2
66 | C87U G112A | -3.91
67 | G92U A122U G141C | -0.707
68 | G92C C123U | -2.47
69 | C93A C125G | -2.62
70 | A89U U144C | 0.497
71 | U90A C105G | ≤ -4.2
72 | C85G U104C | -2.69

Row | Variant | polymerase ribozyme fitness (log ratio)
73 | C85G U104A | -2.4
74 | C93G U146G C149U | -3.51
75 | C87A C95U G141C | -4.16
76 | C85U C114A | -3.52
77 | C85U C118G C125A | -0.0117
78 | C85U A91C | ≤ -4.2
79 | A91G G92U G140A | ≤ -4.2
80 | G92A G141U | -1.8
81 | G88U C99A U146C | ≤ -4.2
82 | U90A C131A G143A | -4.19
83 | C85U C95A G117C | -0.698
84 | C85U U135A | -0.52
85 | C85U U135C | -2.09
86 | G88U C93A | -3.73
87 | G92C C114U U151G | -4.12
88 | A91U U148C | -4.1
89 | C87A A98U | -4.12
90 | C93A U127G | -4.05
91 | C87A U145A | -4.17
92 | C85U A122U | -0.795
93 | C93G C123U G140U | -4.17
94 | G92A U145G | -2.54
95 | G92C C114U G141U | ≤ -4.2
96 | U90C U145G | ≤ -4.2

Row | Variant | polymerase ribozyme fitness (log ratio)
97 | C87U U134C | -0.522
98 | C85U A106U A113C A115U | ≤ -4.2
99 | G86C C105G | -3.67
100 | G92U A147U | 0.301
101 | C87U U109G U127C U135A | -4
102 | C93U C125U U151C G152A | -3.06
103 | C85U A137C | -3.1
104 | C93G A119G | -3.48
105 | C93U G124A | -1.3
106 | C93U G124U | -2.66
107 | C85U G124A G141C | -0.515
108 | A91U A147C | ≤ -4.2
109 | C93A U151A | ≤ -4.2
110 | G92A C103U C116U A121G | -3.47
111 | C93U C114A A115C | ≤ -4.2
112 | C87G G94C A98G | -3.08
113 | C93A A115G C116U | -2.39
114 | C93A C103A U135A A138G | ≤ -4.2
115 | G86A U148A | -3.4
116 | C85G G117A | -2.7
117 | C87U U102G A138C | ≤ -4.2
118 | G86U C93A | -0.194
119 | A89U A115G | -1.6
120 | C85U G126C | -1.23

Row | Variant | polymerase ribozyme fitness (log ratio)
121 | C85U G126U | -1.6
122 | C85U G126A | 0.641
123 | A89C C93U C116U G128A | ≤ -4.2
124 | C93A U135C | -3.56
125 | G86U A89G G92A | ≤ -4.2
126 | A89C A110C | ≤ -4.2
127 | C87G C93U G124C | ≤ -4.2
128 | C87U C116U | -0.851
129 | A91G C96U U101C U144G | -2.18
130 | C87G A122U C129U U134C | ≤ -4.2
131 | C87A C95A | ≤ -4.2
132 | A91G A115C | -3.57
133 | C93G C105A U135A | ≤ -4.2
134 | C85U A106C | -3.33
135 | C85U A106G | -0.585
136 | C85U A147U | -0.285
137 | C93U A115G | -3
138 | A91C A98U C116A A121G U130G | ≤ -4.2
139 | C87G A97U | ≤ -4.2
140 | C87U C149A | -3.78
141 | G86U A122U | -1.8
142 | G86U A122G | -2.43
143 | G92A A147U | -1.84
144 | C85U A142U | -0.394

Row | Variant | polymerase ribozyme fitness (log ratio)
145 | C93G A115G | -4.09
146 | C85G G112C A138U C149A | ≤ -4.2
147 | C85U A119C C131G G141C | -0.0963
148 | C87G C93G | -3.76
149 | C93A G100U U102G G117U A138C | ≤ -4.2
150 | C93A G128C C132G A138G U148G | ≤ -4.2
151 | C85U G140C | -2.76
152 | G92A A106C | -3.04
153 | C93G A98G | -2.91
154 | C87G C125U | ≤ -4.2
155 | G88A C118U G141U U144A | ≤ -4.2
156 | C87G G100C | -3.97
157 | A91C A137C A150C U151G | ≤ -4.2
158 | G88U C132U | -3.92
159 | A89G C108U | -3.7
160 | C93U C96G | -1.58
161 | C93U C96U | -3.28
162 | A91U A97G A122U A147U | ≤ -4.2
163 | G86U A107G C116A G136U A138C | ≤ -4.2
164 | C85U G86U C105U U135A A150C | ≤ -4.2
165 | C85G U151C | -4.2
166 | A89G C95A | -2.08
167 | C93U G126A | -0.311
